The results in this text go back to publication PMC6754406, “Ran pathway-independent regulation of mitotic Golgi disassembly by Importin-α” (Nature Communications, 2019).

Experiment [1] addresses GM130-NLS phospho-S25 (synthetic peptide with a phosphate moiety on Ser-25 of GM130, a.a. 13-40) (human). The experiment can be described thus: ITC; MicroCal iTC200, 25 °C, 20 mM HEPES pH 7.4, 1 mM DTT, with either 50 or 200 mM NaCl (which one is shown only in the figures); one-sites binding model.
Experiment [2] deals with GST-GM130-S25D (a.a. 1-85) (human). The experiment can be described thus: pull-down; GST-GM130 (or GST-IBB) and the recombinant partner at 1:1 molar ratio on glutathione sepharose beads, wash with 150 mM NaCl, elution with 50 mM reduced glutathione, SDS-PAGE, Coomassie blue.
The target is the same in experiment [3]. The experiment can be described thus: pull-down; competition: p115-CTD with GST-GM130-WT or GST-GM130-S25D and increasing concentrations of Importin-α FL (up to 40 μM); GST beads, SDS-PAGE, Coomassie blue, band intensities normalised by GST-GM130.
Experiment [4] has as its target GST-GM130-WT (a.a. 1-85) (human). Described as above.
Experiment [5] deals with GST-GM130-S25D (a.a. 1-85) (human). The experiment can be described thus: pull-down; 5 µM GST-GM130 with HEK293T cell lysate (RIPA buffer) and glutathione sepharose beads, washes with 150 mM NaCl, Western blot for Importin-α and Importin-β.
Experiment [6] addresses GM130-NLS WT peptide (human). The experiment can be described thus: ITC; MicroCal iTC200, 25 °C, 20 mM HEPES pH 7.4, 1 mM DTT, with either 50 or 200 mM NaCl (which one is shown only in the figures); one-sites binding model. On the technique in general: ITC needs no label: the signal is the heat of the interaction.

Importin-β, recombinant, non-tagged, sequence (Q14974 whole entry): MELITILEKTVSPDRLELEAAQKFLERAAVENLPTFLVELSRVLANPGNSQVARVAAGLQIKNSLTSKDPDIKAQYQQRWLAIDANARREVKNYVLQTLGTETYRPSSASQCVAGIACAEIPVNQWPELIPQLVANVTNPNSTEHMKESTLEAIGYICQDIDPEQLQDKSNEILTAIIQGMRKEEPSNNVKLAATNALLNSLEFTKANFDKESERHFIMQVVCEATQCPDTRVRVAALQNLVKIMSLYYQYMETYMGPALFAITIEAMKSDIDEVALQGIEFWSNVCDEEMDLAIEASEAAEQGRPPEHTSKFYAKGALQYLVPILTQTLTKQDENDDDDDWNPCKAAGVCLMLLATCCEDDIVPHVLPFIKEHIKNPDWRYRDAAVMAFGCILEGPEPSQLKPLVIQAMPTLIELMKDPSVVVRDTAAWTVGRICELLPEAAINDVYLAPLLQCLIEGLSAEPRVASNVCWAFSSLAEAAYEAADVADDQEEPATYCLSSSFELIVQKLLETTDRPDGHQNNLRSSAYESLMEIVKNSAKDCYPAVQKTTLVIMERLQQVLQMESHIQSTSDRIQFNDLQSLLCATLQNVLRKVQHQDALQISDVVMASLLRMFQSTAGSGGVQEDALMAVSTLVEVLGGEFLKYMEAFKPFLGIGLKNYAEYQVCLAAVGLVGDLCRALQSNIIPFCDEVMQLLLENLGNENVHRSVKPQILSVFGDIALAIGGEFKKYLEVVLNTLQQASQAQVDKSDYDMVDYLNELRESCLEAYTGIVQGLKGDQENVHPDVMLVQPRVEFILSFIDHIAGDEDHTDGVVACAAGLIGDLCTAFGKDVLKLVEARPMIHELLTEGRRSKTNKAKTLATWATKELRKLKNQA

The substance “Importin-α FL (full-length Importin-α), recombinant (from UniProt P52292 1-529) (natural protein)” gave a fold lower dissociation constant than GM130-NLS WT in experiment [1] of 3.3 fold. Further, the percent of Importin-α FL pulled down relative to Importin-α(ΔIBB) in experiment [2] stood at 50%. Moreover, in experiment [3], the fold Importin-α FL pulldown against wild-type GM130 (40 μM Importin-α FL) is 2 fold and the percent p115-CTD remaining on GM130 with 40 μM Importin-α FL is 20%. This substance also yielded a percent p115-CTD remaining on GM130 with 40 μM Importin-α FL in experiment [4] of 38%.
Turning to “Importin-α(ΔIBB) (Importin-α lacking the IBB domain, a.a. 70-524) (from UniProt P52293 70-524) (domain or fragment)”, in experiment [1], the Kd (commonly the equilibrium constant for the complex coming apart) was 126 nM.
In experiment [5], “Importin-α, endogenous in HEK293T cells (from UniProt P52292 1-529) (natural protein)” gave a fold Importin-α pulldown against wild-type GST-GM130 of 1.3 fold.
“Importin-β, recombinant, non-tagged (from UniProt Q14974 1-876) (natural protein)” came in with a Kd in experiment [6] of 1200 nM. This substance also registered a fold lower binding constant than the wild-type GM130 peptide in experiment [1] greater than 1000 fold.
